# From the DeepSol protein solubility set
# Assay: soluble on expression in E. coli; label from the status in PepcDB or PDB records
row,Sequence,soluble on expression in E. coli
1,MGSDKIHHHHHHMSHRFFYRILGMRYLTSTNRKGYARMLFHRFSEKEWNFLKNDENNECFSCLMFYSRTGNAGRLEEEITDMKVDILSREYPPKVYGGAGVHAEELSKVLAERVDVTVRAFDGPRTAADIPAIPGTDPKGSLTVVGYDVPKELEDANGALKTFGVDLQIANDVDADIIHAHTWYACLAGYLAKMLHDTPLVITAHSLEPFRPWKREQLGGGYNLSSWAEKDAYEHADRVIAVSAGMREDILTAYPNLDPDKVVVVHNGITMSQFETPADDDPGWKVFERYNIDRSKPTLLFVGRITRQKGLPYLLQALHFVDPNIQVVLCAGAPDTPEIMEEVKTAFAKLDEERGNIIWIEEMLPKPELNALEHGCDAFICPSIYEPLGIVNLEAMACGLPVVASATGGIPEVVVDGETGYLVPVDQLHDGTGTPTNPDKFVHDMADAINRIMADPEKAKRMGQAGYERARDHFSWESIADKTVKVYEDVLAERK,not soluble
2,MGSDKIHHHHHHTEDKDWSGGLKNSDLVFQTYLPTEGAKGTELSIRGNNFGEDISQVQVWVNEKEAEVISVTSTRIMARVAEASGSGVVKVRVGEVVYSYPDLFSYGYIRNVYTVAGNGQGTTVDGAYLQASVQWPIVMVYDKWDDAILFLQDEGEHRIRRMKDGKIETLCSTKSLVNNARSICFSLDGDTLFIGNDNANNYVANPVAVGMVTRKGGFKDLKSYIPSEKLAQPHINGIAVNPVDGSLFTYHWGRHVFRYNKATETCEYVITRDQFNELVVGLFPDADGNMQNIGGDGGYGGLAFSPDGKTLYWNGRDPYQGILKADYDLVTKKCTNLTRFAGNGVWGIIDGQGVSSRMDQPNQIAVDAEGNLLVTTVYGRTVRKITPEGYVSTYAGIGYQTGYVDGLAAEAKFNKPYGIAIDAQGNVYVGDCENWRIRVIKEE,not soluble
3,MPEDVKNFYLMTNGFHMTWSVKLDEHIIPLGSMAINSISKLTQLTQSSMYSLPNAPTLADLEDDTHEASDDQPEKPHFDSRSVIFELDSCNGSGKVCLVYKSGKPALAEDTEIWFLDRALYWHFLTDTFTAYYRLLITHLGLPQWQYAFTSYGISPQAKVREEHLPL,not soluble
4,GPGSMEDPVRCECQKHAQDDGYSQGELLPLTAFRQVEKRYKLYRYDRRTSRRLQVPETDFSDVVDFRNLEANTAANLACISTRECHEDDRLVKCCTFAGVPGMEVFPNFLTDAEQQEFCRAALLEYGDSRRHPNHLSTHASEPRETTRYEPPMRWATVGFSYQWSSKSYCKEKYSHFPRRLRKCVERIARLCNVSQPYEPQTSIVNYFPVGAMMMAHQDVSEEVLQQPLISISLGCSCVFLMGTESRDDTPCAFWLRSGDVIVVSGASRTAYHGVPRIMDDCPQYLCPQNETEEEEGEFYWREQMRHLRVNINVRQVYPDRCEFLNE,not soluble
5,ENQYVMKLANSLFVQNGFHVNEEFLQMLKMYFNAEVNHVDFSQNVAVANSINKWVENYTNSLLKDLVSPEDFDGVTNLALINAVYFKGNWKSQFRPENTRTFSFTKDDESEVQIPMMYQQGEFYYGEFSDGSNEAGGIYQVLEIPYEGDEISMMLALSRQEVPLATLEPLLKAQLIEEWANSVKKQKVEVYLPRFTVEQEIDLKDILKALGVTEIFIKDANLTAMSDKKELFLSKAVHKSCIEVNEEGSEAAAASGMIAIS,soluble
6,MDVVFPKMPHHQTVTNVRVPSSRGSAISRAHSEHRRSIDRSEPRHHHRHHVHSETPELPYTRGISKTPSVREYNVKREGQRSPSRSHRSERSPSEVRIPVTTTHTRPIAKRQSPEELDYGRFADKSQQNRFPGDHQAREEDLPYTRGISKTPSNQDSRSERTPCSDIHIPYNNPEKERAYQQSERSSYRSHKSVTPSEKSLPRNSETPELHYTRGISKTPSDRVEKSRYLSRGVSTPHTPSEVHIPYNNPEKERAYQQSHRPSSPKRRPSGRTNSPNKSSSSSKARPSAAPLEEIVHIKERYERDETIRRFFPTTTAV,not soluble
7,SQYSAQRDLRMSPGDTVELGGYHFLFDGAKHHEGPNYTSDKGSIHVSRDGKEIATLHPEKRLYTVQSSMMTEAGIDAGFTRDLYVALGEPLENGAWAVRVHVKPFVR,not soluble
8,MAHHHHHHMTMFGKIHVYKRTYEICSIILKNYFVYYHPLYLDFYLSFAWYNKGSNNEKAFLHFLREFILLQINVCSKRCREKKMEILKMNENFEHLVFSIIFKNNKEEEDNKNKYDINENVNIRRLDNYVSSSFLNDICYPHCNIYNENKNFDILKNFDFLKSNILLASSLHYFINSLFCYYNNDDFINKYKSTDFIFDSILLCIKSLESVKRTYRLSTYTEKGFGNVCLDISLMIIKLKLKHPKFLEKKDNWMLYALRNAMEAEEVTEKK,not soluble
9,MPRHFHVALLILVLCGAERARGALRVQLQDYDKNSWRSVLRRVAPEWVLEEFADVKVLSAAENGFQLPKSGLAQIEINKSGRKTVTANTPTDALNAINTYLRTECLSQVSWSNSSFSSGCRKRTSDFINFESKQIRYFGNMCTFSYSFAWWEWPQWERFIDWIALNGFNTVLMPLGQEIIWRDIFMGLGVQRDELDSYFTSQAYLAWHRMGNLKAYGGGLSDAQMLNDHNLAKRIIDRLLELGITPILPTFAGFVPDHLETLFPASKFNRLPRWNNFTSETSCMLSVSPFDPLFQKIGSTFLRHQKKMFGGDVTNMYSADPFNEILPSESAKFDAKFVKQTAQAIMNSCKKVDKNCVWVLQSWSFTYDQWPAWAIKSFLSAIPVGNLLILDLYAEVVPAWQMTSSFQGHHFVWCLLHNFGGSRELRGNLQKIDKGYQLALMKAGSNLVGAGLSMEAIDQNYVVYQFMIDRMWSPEPLPLNNWLKAYSESRYSADFKVAQKFWTLLAGTFYNQPEKWGTPRFSVFLYHRPGFGRKIEYWFPVEETFSRFRELLPALVHVLGEHPLFREDLNDVMREMTQFEMGNEAALSMSEAFLMEDKQQVGASCEMLMEMFQKLESYSNRDVRQWIENAKSIAPTSEERQVFPVTAGDILTVWGPTGQNLDYAHREWAGLMSGYYGRRWQYFCDWILEHDDFNHTEFSISVFRDVERPFSISNI,not soluble
10,MGSDKIHHHHHHMATLSDFNRDGKRYVALNGVGDDQDQSILFDHVSSYDLIRSFVDANCNWSRVLESRKNQWKPSILPEADGLAYNPPGKPEDIRNCTVSAFGNTHKTINNSLSSQKDVDWFYKGNGTTVIGTDHPLISNLNSYGCGIEIEYAAVFMINAAGDPVYIGYTIANDFSDAEMRRRMPSLANLSKLATTSFGRFLFLAPIPTKTEIACTILRHGKPAWRVNGQLGSEAMKYSFSYLNELLFQNQSIKGDAYTIHYMLLGASISSNKAEFDMKHSDIILVHDEDNNVILRNEYIDEAIVCACC,not soluble
11,LGKQIMFDAFRFKCPPQELNAAIIKQLRGLLDLGIGEIKARAEKQEALLEYPIFFNDWQDNKKIIRNLLDRISADQLPLEIYRYTTFEDGSVLEEQLTLKEANEALTALQRIELEQDMLSQLEAGHISSRDEYVPDDEDV,not soluble
12,MFKGSIPALITPFTDNGSVDEKAFAAHVEWQIAEGSNGLVPVGTTGESPTLSHDEHKRVVELCIEVAAKRVPVIAGAGSNNTDEAIELALHAQEAGADALLVVTPYYNKPTQKGLFAHFSAVAEAVKLPIVIYNIPPRSVVDMSPETMGALVKAHKNIIGVKDATGKLDRVSEQRISCGKDFVQLSGEDGTALGFNAHGGVGCISVTANVAPRLCSEFQAAMLAGDYAKALEYQDRLMPLHRAIFMEPGVCGTKYALSKTRGGNRRVRSPLMSTLEPATEAAIDAALKHAGLMN,not soluble
13,MAAGESMAQRMVWVDLEMTGLDIEKDQIIEMACLITDSDLNILAEGPNLIIKQPDELLDSMSDWCKEHHGKSGLTKAVKESTVTLQQAEYEFLSFVRQQTPPGLCPLAGNSVHADKKFLDKHMPQFMKHLHYRIIDVSTVKELCRRWYPEDYEFAPKKAASHRALDDISESIKELQFYRNNIFKKKTDEKKRKIIENGETEKPVS,soluble
14,SLGWQISRFNRAFDTLCQQGRVGVGRSSGRFKPRVVVAIALDDQQRIVDTLFMKGLTVFARPQKIPAITGMHAGDLQPDVIFPHDPLSQNALSLALKLKRG,soluble
